Measurements taken from the supplement of paper PMC9170038.

System: MS2 coat protein
Assay: apparent KD of MS2 coat protein; designed switch direction (-1 OFF switch, 1 ON switch): 1; higher = weaker reporter binding
Method in brief: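 The buffer was Tris-HCl pH 7.5 with KCl, MgCl2, BSA, DTT, tRNA and Tween-20. In it, SNAP-549-labelled MS2 coat protein was titrated in doubling steps from 0.7 or 1.5 nM to 3 µM over chip-bound RNA switches transcribed by stalled E. coli RNA polymerase on Illumina chips. Apparent KD is the per-design median over clusters of curve fits to normalised fluorescence.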

[1] = input ligand: microRNA oligo, concentration not stated
[2] = Eterna round: R95, input ligand: FMN 200 uM
[3] = Eterna round: R95, input ligand: microRNA oligo, concentration not stated
[4] = Eterna round: R95, input ligand: none

Sequence | apparent KD of MS2 coat protein (input ligand: FMN 200 uM) [nM] | apparent KD of MS2 coat protein [1] [nM] | apparent KD of MS2 coat protein (input ligand: none) [nM] | apparent KD of MS2 coat protein [2] [nM] | apparent KD of MS2 coat protein [3] [nM] | apparent KD of MS2 coat protein [4] [nM]
GUAGCAUACCGAGGAUAUUCAUAUAAUAAAUAACAUGAGGAUCACCCAUGUAGGCGAAAGCCUUGGGAGAAGGCGGAAUGCUAC [Xeonanis - 20 Mod57] (Eterna round: R96, puzzle: Same State NG 2) | 13.5 | 108 | 112 |  |  | 
UUAUAACAUGAGGAUCACCCAUGUCAACAAAGUCGAGGAUAUGGGCAUAGAUUAUAAGAACCAGAAGGCGAAUAUU [Mat - Same State 1 - Mod of UCT - D40] (puzzle: Same State 1) |  |  |  | 51.8 | 117 | 118
AAAAUGUGAUGUCACAUGAGGAUCACCCAUGUGGUGACAACUAAGGAUAUAACGAACCAAGGCGAUUAGAAGGUAGGAUCACAA [AK SSNG3-V2-17] (Eterna round: R96, puzzle: Same State NG 3) | 102 | 120 | 207 |  |  | 
AGUCCAGCCUGAGCUGGACAAAAGCAUGUACAUGAGGAUCACCCAUGUUCAUGUACAAGCUUUUUGCUCGUUUUAAA [Zipper 52 - 8] (puzzle: Sensor for hsa-mir-208a) |  |  |  | 523 | 13.5 | 546
ACAUGAGACACAGGAUAUCAUGUACCUACAUGUGACAUGAGGAUCACCCAUGUGGUAAGUAUGACUGAGAAGGGUGAGAUAUGU [Equivalance 89 - Jieux - Same State NG 2] (Eterna round: R96, puzzle: Same State NG 2) | 369 | 394 | 962 |  |  | 
AUUAUUUAUGCAGGAUAUGAUUAACAUGAGGAUCACCCAUGUGGUGUUGUGAGUAAGGAGAGUGAUCAGAAGGGCAUUUUGUUU [JMF's solution 51] (Eterna round: R96, puzzle: Same State NG 2) | 794 | 321 | 451 |  |  | 
GGCAGGUGCAGGCUUGCUUGCACCUGGAAACAUGAGGAUCACCCAUGUUUGGGACAAGCUUUGCUCCUCGUCUUGUC [JL ViennaUCT Isusreraar mod 2] (puzzle: Sensor for hsa-mir-208a) |  |  |  | 28.2 | 36.5 | 36.7
CUACGAGCGCCACAGGAUAUACUGAGACUCACAUGAGGAUCACCCAUGUCCAAUUCUCCCAAAUAGUAGAAGGGUGACGCGCUCG [Maenve] (Eterna round: R96, puzzle: Same State 2) | 35.5 | 426 | 562 |  |  | 
GCCGCGUUUCGCGCCUACAUGAGGAUCACCCAUGUUUGUAGGCAGGAUAUCGCCCGCUUUGCGGGCGAGAAGGGCUGUUGUGGC [salish99_SSNG3_R04_020] (Eterna round: R96, puzzle: Same State NG 3) | 59 | 38.8 | 55.5 |  |  | 
GGUUUAGUCAAGCGCAGUUGCACUUGAAAACAUGAGGAUCACCCAUGUUUGGGACAAGCUUUGCUCCUCGUCUUUCC [Dicebior] (puzzle: Sensor for hsa-mir-208a) |  |  |  | 194 | 78.2 | 386
UAAGAACAUGAGGAUCACCCAUGUGGAAAGAACACAGGAUAUCAUGGAAGAACGAAACCAUGAGAAGGGUGACACG [Raatis] (puzzle: Same State 1) |  |  |  | 6270 | 225 | 24.3
AGUCCAGCCUGAGCUGGACAAAAGCAUGUACAUGAGGAUCACCCAUGUUAUGUACAAGCUUUUUGCUCGUCUUAAAA [Zipper 46 - 15] (puzzle: Sensor for hsa-mir-208a) |  |  |  | 165 | 13 | 153
AGGGAGGAGGCUGAGGAUAUCGUAAGGAGGACAUGAGGAUCACCCAUGUGUAUAGGAUUGGAGGACGAGAAGGCAGAGGAGUGGG [JR_SS2_Sub050] (puzzle: Same State 2) |  |  |  | 41.1 | 26.6 | 28.9
GGUCGGACUCACAUGAGGAUCACCCAUGUUGCGGAAACGCAGCAGGAUAUCUGUCCGAAAAGGUCAGAGAAGGGCUAACCGACC [Fiskers NG3ss - 57] (Eterna round: R96, puzzle: Same State NG 3) | 197 | 596 | 1310 |  |  | 
GUGGAGGGUUGAGGAUAUUGAAUACAUAUGUUUAACAUGAGGAUCACCCAUGUGGGUUGCGGUAUCGAGAAGGUAAGUUGCUGG [salish99_SSNG2_r04_038] (Eterna round: R96, puzzle: Same State NG 2) | 105 | 94.2 | 89.3 |  |  | 
GGAGCCGGCACCGAGGAUAUUCAUAUUAAAACAUGAGGAUCACCCAUGUAGGCCAGAAGGCCUUGGGAGAAGGCGGACCGGCUCG [Xeonanis - 4] (Eterna round: R96, puzzle: Same State 2) | 27.4 | 165 | 287 |  |  | 
GAGUAGUUGAAAGGAUAUUGAUUAUUGUAGGAUCAAGAAGGUUCUAACAUGAGGAUCACCCAUGUAGGACUAUUCCUGUGUAUC [Parity 89 - Jieux - Same State NG 1] (Eterna round: R96, puzzle: Same State NG 1) |  | 8.63 |  |  |  | 
GGCGCCGGCGCAGGAUAUAAUAGCACCAACAAAUUAGAAGGGUGUCUGACUUAAACAUGAGGAUCACCCAUGUGCGCCACAAAA [Eternabot solution 2] (Eterna round: R96, puzzle: Same State NG 1) | 198 | 137 | 311 |  |  | 
GUAGCAUACCGAGGAUAUUCAUAUAAUAACAUGAGGAUCACCCAUGUUUAUAGGCGAAAGCCUUGGGAGAAGGCGGAAUGCUAC [Xeonanis - 20 Mod63] (Eterna round: R96, puzzle: Same State NG 2) | 10.4 | 12.3 | 18.8 |  |  | 
ACAUGAGAAGGAGGAUAUUUUGUACCUACAUGUGACAUGAGGAUCACCCAUGUGGUAAGUAUGAGAAAGAAGGCCUAGAUAUGU [Equivalence 15 - Jieux - Same State NG 2] (Eterna round: R96, puzzle: Same State NG 2) | 21.3 | 21 | 36.3 |  |  | 
AAAAAACAUGAGGAUCACCCAUGUCAAAAGACAUGAGGAUAUGUACAGACUUCGGUCUGUACAGAAGGCAUGAAAA [SS1 - 1011] (Eterna round: R96, puzzle: Same State 1) |  | 359 |  |  |  | 
AUAAGACACAUGAGGAUCACCCAUGUGGCCGUAGUCGGCUCACAGGAUAUCAAGCUACUAGUGCUUGAGAAGGGUGAGACAAGC [Raar Mod] (Eterna round: R96, puzzle: Same State NG 3) | 57.3 | 190 | 323 |  |  | 
UUGUUUCGUCAUUAACAUGAGGAUCACCCAUGUAUUGACCCAGAGGAUAUGCAUGUUUGAUUGUAGCAGAAGGCUGAUUGUUGU [JR_SSNG3_Sub032] (Eterna round: R96, puzzle: Same State NG 3) | 13.7 | 27 | 26.3 |  |  | 
